# US20260210971A1 (Pfizer, published 2026)
# Changes are numbered by the printed parent chain.
# B1: 1D1 1.30 (antibody, human IgG1, kappa, V domains shown)
# VH: QVQLVQSGAEVKKPGASVKVSCKASGYDFTYYGISWVRQAPGQGLEWMGWISTYNGVTHYARMLQGRVTMTTDTSTRTAYMELRSLRSDDTAVYYCARENYYGSGSYRGGMDVWGQGTTVTVSS
# VL: EIVLTQSPATLSLSPGERATLSCRASQSVSSYLAWYQQKPGQAPRLLIYDASNRATGIPARFSGSGSGTDFTLTISSLEPEDFAVYYCQQRSNWPWTFGQGTKVEIKR
# notes: Expressed as IgG1; also called 1D1 1.30-hIgG1-3m
# B2: 1D1 1.32 (antibody, human IgG1, kappa, V domains shown)
# VH: B1 VH with V57G, S106A, V113A
# VL: B1 VL
# notes: Expressed as IgG1
# B3: 1D1 1.33 (antibody, human IgG1, kappa, V domains shown)
# VH: B1 VH with S106A, V113A
# VL: B1 VL
# notes: Expressed as IgG1; also called 1D1 1.33-hIgG1-3m
# B4: 1D1 1.34 (antibody, human IgG1, kappa, V domains shown)
# VH: B1 VH with V57K, L64H, S106A, V113A
# VL: B1 VL
# notes: Expressed as IgG1
# B5: 1D1 D37 (antibody, IgG1, V domains shown)
# VH: B1 VH with D28S, V57G
# VL: B1 VL
# notes: same light chain as 1D1; also called 1D1-VH-37
# B6: 1D1 D24 (antibody, V domains shown)
# VH: B1 VH with D28S, T53P, V57N
# VL: B1 VL
# notes: IgG with triple mutant Fc as for 1D1 D37
# B7: 1D1 D38 (antibody, V domains shown)
# VH: B1 VH with D28S
# VL: B1 VL
# notes: as for B6
# B8: 1D1 D39 (antibody, V domains shown)
# VH: B1 VH with D28S, V57N, H59N, S106A, V113A
# VL: B1 VL
# notes: as for B6
# B9: 1D1 DH3 (antibody, V domains shown)
# VH: B1 VH with D28S, V57N, R62Q
# VL: B1 VL
# notes: as for B6
# B10: anti-TL1A antibody 7D4 (antibody, human IgG1, kappa, V domains shown)
# VH: QVQLVQSGAEVKKPGASVKVSCKASGYTFTSYGINWVRQAPGQGLEWMGWISTYNGNTNSAQKLQGRVTMTTDTSTSTAYMELRSLRSDDTAVYYCARAHSSSWFDAFDIWGQGTMVTVSS
# VL: AIQLTQSPSSLSASVGDRVTITCRASQGISSALAWYQQKPGKAPKLLIYDASSLESGVPSRFSGSGSGTDFTLTISSLQPEDFATYYCQQFNSYPLTFGGGTKVEIKR
# notes: Human IgG1-3m, kappa; also called 7D4-hIgG1-3m
# B11: anti-TL1A antibody 26B11 (antibody, V domains shown)
# VH: QVQLVESGGGVVQPGRSLRLSCAASGFTFSSFAMHWVRQAPGKGLEWVALIPFDGSSNYYADSVKGRFTISRDNSKNTLYLQMNSLRAEDTAVYYCARDRNYYGSGSFSFDAFDIWGQGTLVTVSS
# VL: DIQMTQSPSSLSASVGDRVTITCRASQGISNWLAWYQQKPEKAPKSLIYAASSLQSGVPSRFSGSGSGTDFTLTISSLQPEDFATYYCQQYNSYPYTFGQGTKLEIKR
# notes: also called 26B11-hIgG1-3m
# B12: recombinant soluble human TL1A (ligand)
# chain: ALKGQEFAPSHQQVYAPLRADGDKPRAHLTVVRQTPTQHFKNQFPALHWEHELGLAFTKNRMNYTNKFLLIPESGDYFIYSQVTFRGMTSECSEIRQAGRPNKPDSITVVITKVTDSYPEPTQLLMGTKSVCEVGSNWFQPIYLGAMFSLQEGDKLMVNVSDISLVDYTKEDKTFFGAFLL
# Molecular target: B12
# Test: cell-based or functional assay
Binder,"Caspase Assay, average IC50","NFkB Assay, average IC50"
B1,0.103 nM,0.37 nM
B2,0.0615 nM,0.18 nM
B3,0.146 nM,0.2 nM
B4,0.0627 nM,0.182 nM

# Molecular target: T1, recombinant soluble cynomolgus monkey TL1A (cynomolgus monkey, UniProt O95150 72-251 (human entry))
# T1 construct: also called cyno rsTL1A; cyno TL1A
# T1 chain: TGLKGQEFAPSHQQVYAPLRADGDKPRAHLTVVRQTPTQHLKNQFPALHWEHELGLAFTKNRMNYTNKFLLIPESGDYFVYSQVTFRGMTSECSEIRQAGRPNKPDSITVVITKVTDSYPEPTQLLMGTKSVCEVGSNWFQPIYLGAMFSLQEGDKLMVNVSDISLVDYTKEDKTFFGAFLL
# Test: SPR, IgG captured on anti-hIgG, TL1A injected
row,Binder,Kd
1,B5,0.335 nM
2,B6,0.943 nM
3,B7,0.611 nM
4,B8,0.396 nM
5,B9,0.675 nM

# Molecular target: B12
# Test: SPR, IgG captured on anti-hIgG, TL1A injected
row,Binder,Kd
1,B5,0.305 nM
2,B6,0.932 nM
3,B7,0.687 nM
4,B8,0.441 nM
5,B9,0.56 nM

# Molecular target: T2, recombinant soluble murine TL1A (mouse, UniProt Q5UBV8 75-252)
# T2 construct: also called murine rsTL1A; mouse TL1A
# T2 chain: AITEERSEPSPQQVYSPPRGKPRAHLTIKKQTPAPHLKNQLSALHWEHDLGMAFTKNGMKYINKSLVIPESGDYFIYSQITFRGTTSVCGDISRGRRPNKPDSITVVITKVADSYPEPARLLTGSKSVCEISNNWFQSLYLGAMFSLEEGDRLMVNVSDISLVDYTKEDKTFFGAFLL
# Test: SPR, IgG captured on anti-hIgG, TL1A injected
row,Binder,Kd
1,B5,0.787 nM
2,B6,0.804 nM
3,B7,1.29 nM
4,B8,0.613 nM
5,B9,0.62 nM

# Molecular target: T1, recombinant soluble cynomolgus monkey …
# Test: SPR, IgG captured on anti-hIgG, TL1A injected
# Remark: another data set of the same source
# Excerpt: (§1) The antibodies were captured via directly immobilized anti-human IgG (GE Healthcare) onto a carboxymethylated dextran sensor chip surface (CM5) using a Biacore T100 or T200 instrument. Anti-human IgG was immobilized through amine coupling to densities of approximately 4,000-13,000 response units (RU). […] At the end of each cycle, the entire anti-hIgG surface was regenerated by a 30-second pulse of 3M MgCl₂ followed by two consecutive 15-second pulses of PBS-NET. […] All injections were performed at 25° C. at a collection rate of 10 Hz. All sensorgrams were double referenced by using both a control surface and buffer injections. Rate constants were determined by fitting the data to a 1:1 model in Biacore T100, T200 evaluation software v1.0, or BIAevaluation software v4.1.1 and the equation KD=Kd/kₐ.
# (§2) At the highest cytokine concentrations, the dissociation phase was sometimes extended to 60 minutes to achieve at least a 5% decrease in binding signal.
Binder,Kd,koff,kon,t1/2
B1,0.142 nM,6e-05 s⁻¹,410000 M⁻¹ s⁻¹,199 min
B2,0.066 nM,2.9e-05 s⁻¹,460000 M⁻¹ s⁻¹,398 min
B3,0.107 nM,3.7e-05 s⁻¹,360000 M⁻¹ s⁻¹,309 min
B4,0.083 nM,3.6e-05 s⁻¹,440000 M⁻¹ s⁻¹,323 min

# Molecular target: T1, recombinant soluble cynomolgus monkey …
# Test: SPR, IgG captured on anti-hIgG, TL1A injected
# Remark: another data set of the same source
# Excerpt: (§3) To characterize the binding kinetics of the anti-TL1A antibodies to TL1A by surface plasmon resonance, each anti-TL1A antibody was captured via directly immobilized anti-human IgG (GE Healthcare) onto a carboxymethylated dextran sensor chip surface (CM5) using a Biacore T100 or T200 instrument. Anti-human IgG was immobilized through amine coupling to densities of approximately 4,000-13,000 response units (RU). […] At the end of each cycle, the entire anti-human IgG (hIgG) surface was regenerated by a 30-second pulse of 3M MgCl₂ followed by two consecutive 15-second pulses of PBS-NET. All injections were performed at 25° C. at a collection rate of 10 Hz. All sensorgrams were double referenced by using both a control surface and buffer injections. Rate constants were determined by fitting the data to a 1:1 model in Biacore T100, T200 evaluation software v1.0, or BIAevaluation software v4.1.1 and the equation KD=kd/kₐ.
# (§4) The anti-TL1A antibodies were captured onto immobilized anti-human Fc on a CM5 sensor chip on a Biacore T100 instrument. […] Rate constants shown in the table were determined by fitting to a 1:1 Langmuir binding model in BiaEvaluation v4.1.1 (fit lines shown in red). Data shown are the average and standard deviation of at least 3 independent surfaces between 2 experiments.
Binder,Kd,koff,kon
B10,6.9 nM,0.0014 s⁻¹,200000 M⁻¹ s⁻¹
B11,36 nM,0.006 s⁻¹,200000 M⁻¹ s⁻¹

# Molecular target: B12
# Test: SPR, IgG captured on anti-hIgG, TL1A injected
# Remark: another data set of the same source
# Excerpt: as §3, §4
Binder,Kd,koff,kon
B10,0.9 nM,0.0004 s⁻¹,400000 M⁻¹ s⁻¹
B11,0.6 nM,0.00011 s⁻¹,170000 M⁻¹ s⁻¹

# Molecular target: B12
# Test: SPR, IgG captured on anti-hIgG, TL1A injected
# Remark: another data set of the same source
# Description: Biacore analysis was performed using T-200 biosensor, series S CM5 chips and approximately 4000 RU (response units) of an anti-human IgG (GE Healthcare), immobilized in 10 mM sodium acetate immobilization buffer at pH 5.0. Assay conditions were established to minimize the influence of mass transfer, avidity, and rebinding events, as described below. A blank immobilization was carried out on a separate flow cell for reference subtraction. The purified IgGs were diluted in running buffer (PBS, 300 mM sodium chloride, 3.2 mM ethylenediaminetetraacetic acid, 0.01% Tween20) and low levels (<30 RU) captured using a flow rate of 100 μl/min for 2 min, to reduce possible rebinding by the trimeric TL1A. […] Reference-subtracted sensorgrams for each concentration were analyzed using Biacore T-200 evaluation software (v1.0).
Binder,Kd,koff,kon
B5,0.326 nM,0.00035 s⁻¹,1.26e+06 M⁻¹ s⁻¹
B6,0.394 nM,0.000806 s⁻¹,2.04e+06 M⁻¹ s⁻¹
B7,0.44 nM,0.000463 s⁻¹,1.05e+06 M⁻¹ s⁻¹
B8,0.442 nM,0.000355 s⁻¹,784000 M⁻¹ s⁻¹
B9,0.412 nM,0.00102 s⁻¹,2.49e+06 M⁻¹ s⁻¹

# Molecular target: B12
# Test: KinExA, equilibrium in solution
# Description: This assay involves pre-incubating antibody: antigen mixtures in solution long enough to reach equilibrium before measuring the level of unbound antibody using a solid phase component. […] Beads were blocked for 1 hour with PBS plus 10 mg/ml bovine serum albumin (bovine serum albumin, Sigma) at room temperature before being diluted up to a total of 27 ml in PBS. […] For each titration series, a buffer sample and a sample of antibody alone were included. Each antibody: TL1A mixture was tumbled at room temperature for at least six hours to reach equilibrium and then each mixture was injected over the solid phase of TL1A-coated beads in the instrument flow cell. […] Beads were replenished between each sample. Binding signals of detected free antibody were converted to percentage of free, unbound antibody as measured by the antibody only sample and plotted versus each concentration of TL1A. For each antibody, the KD and ABC controlled curves were fit simultaneously using n-Curve Analysis software v3.1.4 to fit the curves to the ‘affinity, unknown ligand’ model and measure an equilibrium KD.
# Solution-based kinetic exclusion assays (KinExA) were carried out as an orthogonal technique to measure equilibrium KD values.
row,Binder,Kd
1,B1,0.0068 nM
2,B2,0.00615 nM
3,B3,0.0106 nM
4,B4,0.00116 nM

# Molecular target: B12
# Test: SPR, IgG captured on anti-hIgG, TL1A injected; off rate too slow to measure
row,Binder,Kd
1,B1,< 0.1 nM
2,B2,< 0.1 nM
3,B3,< 0.1 nM
4,B4,< 0.1 nM

# Molecular target: T3, DR3 on TF-1 cells (human, UniProt Q93038 25-417)
# T3 sequence (looked up): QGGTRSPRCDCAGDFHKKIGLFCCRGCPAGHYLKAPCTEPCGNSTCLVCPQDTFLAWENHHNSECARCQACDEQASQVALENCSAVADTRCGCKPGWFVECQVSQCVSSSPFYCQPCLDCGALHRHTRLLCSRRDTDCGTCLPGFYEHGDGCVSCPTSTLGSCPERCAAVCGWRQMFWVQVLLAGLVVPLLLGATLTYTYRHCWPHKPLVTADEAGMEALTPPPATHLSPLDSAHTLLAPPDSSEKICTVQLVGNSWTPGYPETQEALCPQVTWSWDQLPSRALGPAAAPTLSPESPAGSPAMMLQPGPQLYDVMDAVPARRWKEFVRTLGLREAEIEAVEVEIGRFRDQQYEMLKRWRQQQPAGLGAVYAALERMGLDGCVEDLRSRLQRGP
# Test: cell-based or functional assay
Binder,"NFκB-luciferase activity in TF-1-NFκB-luciferase cells, EC50","NFκB-luciferase activity, EC50 in the absence of isotype control antibody","NFκB-luciferase activity, EC50 in the presence of isotype control antibody","caspase activity in TF-1 cells with cycloheximide, EC50"
B12,0.149 nM,0.103 nM,0.11 nM,0.09 nM

# Molecular target: T2, recombinant soluble murine TL1A
# Test: SPR, IgG captured on anti-hIgG, TL1A injected
# Remark: another data set of the same source
# Excerpt: as §1, §2
Binder,Kd,koff,kon,t1/2
B1,5.25 nM,0.0007 s⁻¹,140000 M⁻¹ s⁻¹,17.9 min
B2,0.906 nM,0.00023 s⁻¹,260000 M⁻¹ s⁻¹,49.5 min
B3,1.91 nM,0.00029 s⁻¹,160000 M⁻¹ s⁻¹,39 min
B4,1.11 nM,0.00028 s⁻¹,250000 M⁻¹ s⁻¹,41.8 min

# Molecular target: T4, recombinant soluble rat TL1A (rat, UniProt Q8K3Y7 76-252)
# T4 construct: also called rat rsTL1A
# T4 sequence: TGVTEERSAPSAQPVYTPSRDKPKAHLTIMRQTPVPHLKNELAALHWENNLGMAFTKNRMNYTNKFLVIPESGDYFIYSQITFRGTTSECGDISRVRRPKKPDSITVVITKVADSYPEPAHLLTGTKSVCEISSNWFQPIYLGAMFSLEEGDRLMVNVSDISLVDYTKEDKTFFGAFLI
# Test: SPR, IgG captured on anti-hIgG, TL1A injected
# Excerpt: as §1, §2
Binder,Kd,koff,kon,t1/2
B1,41.9 nM,0.0098 s⁻¹,240000 M⁻¹ s⁻¹,1.18 min
B2,5.02 nM,0.0029 s⁻¹,580000 M⁻¹ s⁻¹,3.95 min
B4,5.92 nM,0.0024 s⁻¹,410000 M⁻¹ s⁻¹,4.77 min
